Experimental data reported in patent US20250043302A1, “MUTATED HYDROXYPHENYLPYRUVATE DIOXYGENASE POLYPEPTIDE, AND CODING GENE AND USE THEREOF” (BEIJING DABEINONG BIOTECHNOLOGY CO., LTD., priority 2021, published 2025).

What was measured:
Format in all cases: in vivo
[1] = test system: Arabidopsis thaliana T1 plants; assay: Topramezone tolerance of transgenic Arabidopsis thaliana T1 plants (spray, bleached leaf area grade, damage score); settings: 7 DAT, Table 4; for Classification and statistics of the grade of pesticide damage: Grade 0 / Classification and statistics of the grade of pesticide damage: Grade 1 / Classification and statistics of the grade of pesticide damage: Grade 2 / Classification and statistics of the grade of pesticide damage: Grade 3: number of plants; for Scores: pesticide damage score 0-100
Method in brief: (§1)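 Read-out: per-plant damage grade 0–3 from proportion of bleached leaf area at 7 DAT (1 <50%, 2 >50%, 3 100%). Plants were T1 transformants, glufosinate-selected, plus wild-type CK, sprayed 18 days post-sowing. Rates: topramezone 25–200, isoxaflutole 35–280, mesotrione 52.5–420 g ai/ha.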

[2] = test system: Arabidopsis thaliana T1 plants; assay: Isoxaflutole tolerance of transgenic Arabidopsis thaliana T1 plants (spray, bleached leaf area grade, damage score); design: Scores (pesticide damage): scale not given here; settings: spray, Arabidopsis thaliana T1 plants; for Classification and statistics of the grade of pesticide damage: Grade 0 (number of plants) / Classification and statistics of the grade of pesticide damage: Grade 1 (number of plants) / Classification and statistics of the grade of pesticide damage: Grade 2 (number of plants) / Classification and statistics of the grade of pesticide damage: Grade 3 (number of plants): 16 plants
Method in brief: as §1

[3] = test system: Arabidopsis thaliana T1 plants; assay: Mesotrione tolerance of transgenic Arabidopsis thaliana T1 plants (spray, bleached leaf area grade, damage score); design: Scores: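 damage score 0-100 computed as Σ(N×S)/(T×M)×100 over grades 0-3 with higher meaning more damage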; settings: Arabidopsis thaliana T1 plants; for Grade 0 (classification and statistics of the grade of pesticide damage; number of plants) / Grade 1 (classification and statistics of the grade of pesticide damage; number of plants) / Grade 2 (classification and statistics of the grade of pesticide damage; number of plants) / Grade 3 (classification and statistics of the grade of pesticide damage; number of plants): 16 plants
Method in brief: as §1

[4] = isoxaflutole 35 g ai/ha (0.5x field concentration)
[5] = isoxaflutole 70 g ai/ha (1x field concentration)

B1: ZmHPPD-02: nucleotide sequence encoding wild-type Zea mays HPPD; vector DBN11766 (nucleic acid)
DNA: ATGCCACCCACACCCACAGCAGCAGCGGCGGGCGCAGCGGTCGCAGCGGCGTCAGCGGCGGAGCAAGCGGCGTTCAGATTGGTTGGTCACCGCAACTTCGTGAGATTCAATCCTCGCTCAGATAGATTCCATACTCTGGCCTTCCACCATGTTGAGCTTTGGTGCGCTGATGCTGCTTCTGCTGCTGGAAGGTTCAGCTTCGGTTTGGGTGCTCCCCTCGCTGCTAGATCTGATTTGAGCACTGGTAACTCAGCACATGCTTCCCTCCTGCTTAGATCTGGCTCTCTGAGCTTCCTTTTCACTGCTCCATATGCTCATGGTGCTGATGCTGCTACAGCTGCTCTCCCTTCATTCTCCGCTGCTGCTGCTAGGAGATTCGCTGCTGATCACGGATTGGCTGTGAGGGCTGTTGCACTTAGAGTTGCTGATGCTGAGGAGGCCTTCCGCACCTCTGTTGCTGCTGGAGCCAGACCAGCTTTCGGACCTGTTGATCTCGGAAGGGGTTTCCGCCTGGCTGAGGTGGAGCTTTACGGCGATGTGGTTCTGCGCTACGTTAGCTATCCTGATGGTGCTGCTGGTGAACCTTTCCTTCCAGGATTCGAGGGTGTGGCCTCACCAGGTGCCGCTGATTACGGCCTGTCCAGATTCGACCACATTGTTGGAAATGTTCCTGAGCTTGCTCCAGCTGCTGCCTACTTCGCTGGCTTCACCGGATTCCATGAGTTCGCCGAGTTCACCACTGAGGATGTGGGAACTGCTGAGTCTGGTTTGAATAGCATGGTGCTCGCCAACAATTCAGAGAACGTTTTGCTCCCTCTGAATGAGCCCGTGCACGGAACAAAGAGAAGGTCCCAGATTCAAACCTTCTTGGATCACCACGGCGGCCCAGGTGTTCAGCATATGGCTCTCGCCTCCGATGACGTGTTGAGAACCCTCAGGGAGATGCAAGCCAGGTCTGCTATGGGTGGCTTCGAGTTCATGGCCCCACCTACAAGCGATTACTATGATGGTGTGCGCAGAAGGGCTGGCGACGTTCTTACCGAGGCTCAGATCAAGGAGTGCCAAGAGCTGGGCGTGCTTGTTGATAGAGATGACCAGGGAGTTCTGCTTCAAATTTTCCCCAAGCCAGTGGGCGACAGGCCTACTTTGTTCCTCGAGATTATCCAGAGAATCGGATGCATGGAGAGGGATGAGAAGGGTCAGGAGTACCAAAAGGGAGGTTGCGGCGGATTCGGCAAGGGAAATTTCTCACAACTCTTCAAGTCCATCGAGGACTATGAAAAGAGTCTGGAAGCGATGCAGGCAGCAGCAGCAGCAACCGCACAGGGGTCGTGA
modifications: ZmHPPD-02 Nucleotide Sequence
notes: vector DBN11766
- Classification and statistics of the grade of pesticide damage: Grade 0 ([1]; topramezone 25 g ai/ha (1×)): 0
- Classification and statistics of the grade of pesticide damage: Grade 1 ([1]; topramezone 25 g ai/ha (1×)): 0
- Classification and statistics of the grade of pesticide damage: Grade 2 ([1]; topramezone 25 g ai/ha (1×)): 0
- Classification and statistics of the grade of pesticide damage: Grade 3 ([1]; topramezone 25 g ai/ha (1×)): 16
- Classification and statistics of the grade of pesticide damage: Grade 0 ([1]; topramezone 100 g ai/ha (4×)): 0
- Classification and statistics of the grade of pesticide damage: Grade 1 ([1]; topramezone 100 g ai/ha (4×)): 0
- Classification and statistics of the grade of pesticide damage: Grade 2 ([1]; topramezone 100 g ai/ha (4×)): 0
- Classification and statistics of the grade of pesticide damage: Grade 3 ([1]; topramezone 100 g ai/ha (4×)): 16
- Scores ([1]; topramezone 25 g ai/ha (1×)): 100
- Scores ([1]; topramezone 100 g ai/ha (4×)): 100
- Resistance evaluation ([1]; topramezone 25 g ai/ha (1×)): non-resistant (non-resistant plants (scores 68-100))
- Resistance evaluation ([1]; topramezone 100 g ai/ha (4×)): non-resistant (non-resistant plants (scores 68-100))
- Resistance evaluation [2, 4]: Non-resistant
- Scores (pesticide damage) [2, 4]: 100
- Classification and statistics of the grade of pesticide damage: Grade 0 (number of plants) [2, 4]: 0
- Classification and statistics of the grade of pesticide damage: Grade 1 (number of plants) [2, 4]: 0
- Classification and statistics of the grade of pesticide damage: Grade 2 (number of plants) [2, 4]: 0
- Classification and statistics of the grade of pesticide damage: Grade 3 (number of plants) [2, 4]: 16
- Resistance evaluation [2, 5]: Non-resistant
- Scores (pesticide damage) [2, 5]: 100
- Classification and statistics of the grade of pesticide damage: Grade 0 (number of plants) [2, 5]: 0
- Classification and statistics of the grade of pesticide damage: Grade 1 (number of plants) [2, 5]: 0
- Classification and statistics of the grade of pesticide damage: Grade 2 (number of plants) [2, 5]: 0
- Classification and statistics of the grade of pesticide damage: Grade 3 (number of plants) [2, 5]: 16
- Resistance evaluation ([3]; mesotrione 52.5 g ai/ha): Non-resistant
- Scores ([3]; mesotrione 52.5 g ai/ha): 100
- Grade 0 (classification and statistics of the grade of pesticide damage; number of plants) ([3]; mesotrione 52.5 g ai/ha): 0
- Grade 1 (classification and statistics of the grade of pesticide damage; number of plants) ([3]; mesotrione 52.5 g ai/ha): 0
- Grade 2 (classification and statistics of the grade of pesticide damage; number of plants) ([3]; mesotrione 52.5 g ai/ha): 0
- Grade 3 (classification and statistics of the grade of pesticide damage; number of plants) ([3]; mesotrione 52.5 g ai/ha): 16
- Resistance evaluation ([3]; mesotrione 105 g ai/ha): Non-resistant
- Scores ([3]; mesotrione 105 g ai/ha): 100
- Grade 0 (classification and statistics of the grade of pesticide damage; number of plants) ([3]; mesotrione 105 g ai/ha): 0
- Grade 1 (classification and statistics of the grade of pesticide damage; number of plants) ([3]; mesotrione 105 g ai/ha): 0
- Grade 2 (classification and statistics of the grade of pesticide damage; number of plants) ([3]; mesotrione 105 g ai/ha): 0
- Grade 3 (classification and statistics of the grade of pesticide damage; number of plants) ([3]; mesotrione 105 g ai/ha): 16

B2: ZmHPPDm-F372A-F383W-02: nucleotide sequence encoding Zea mays HPPD with F372A+F383W; vector DBN11769 (nucleic acid)
DNA: ATGCCACCCACACCCACAGCAGCAGCGGCGGGCGCAGCGGTCGCAGCGGCGTCAGCGGCGGAGCAAGCGGCGTTCAGATTGGTTGGTCACCGCAACTTCGTGAGATTCAATCCTCGCTCAGATAGATTCCATACTCTGGCCTTCCACCATGTTGAGCTTTGGTGCGCTGATGCTGCTTCTGCTGCTGGAAGGTTCAGCTTCGGTTTGGGTGCTCCCCTCGCTGCTAGATCTGATTTGAGCACTGGTAACTCAGCACATGCTTCCCTCCTGCTTAGATCTGGCTCTCTGAGCTTCCTTTTCACTGCTCCATATGCTCATGGTGCTGATGCTGCTACAGCTGCTCTCCCTTCATTCTCCGCTGCTGCTGCTAGGAGATTCGCTGCTGATCACGGATTGGCTGTGAGGGCTGTTGCACTTAGAGTTGCTGATGCTGAGGAGGCCTTCCGCACCTCTGTTGCTGCTGGAGCCAGACCAGCTTTCGGACCTGTTGATCTCGGAAGGGGTTTCCGCCTGGCTGAGGTGGAGCTTTACGGCGATGTGGTTCTGCGCTACGTTAGCTATCCTGATGGTGCTGCTGGTGAACCTTTCCTTCCAGGATTCGAGGGTGTGGCCTCACCAGGTGCCGCTGATTACGGCCTGTCCAGATTCGACCACATTGTTGGAAATGTTCCTGAGCTTGCTCCAGCTGCTGCCTACTTCGCTGGCTTCACCGGATTCCATGAGTTCGCCGAGTTCACCACTGAGGATGTGGGAACTGCTGAGTCTGGTTTGAATAGCATGGTGCTCGCCAACAATTCAGAGAACGTTTTGCTCCCTCTGAATGAGCCCGTGCACGGAACAAAGAGAAGGTCCCAGATTCAAACCTTCTTGGATCACCACGGCGGCCCAGGTGTTCAGCATATGGCTCTCGCCTCCGATGACGTGTTGAGAACCCTCAGGGAGATGCAAGCCAGGTCTGCTATGGGTGGCTTCGAGTTCATGGCCCCACCTACAAGCGATTACTATGATGGTGTGCGCAGAAGGGCTGGCGACGTTCTTACCGAGGCTCAGATCAAGGAGTGCCAAGAGCTGGGCGTGCTTGTTGATAGAGATGACCAGGGAGTTCTGCTTCAAATTGCTCCCAAGCCAGTGGGCGACAGGCCTACTTTGTGGCTCGAGATTATCCAGAGAATCGGATGCATGGAGAGGGATGAGAAGGGTCAGGAGTACCAAAAGGGAGGTTGCGGCGGATTCGGCAAGGGAAATTTCTCACAACTCTTCAAGTCCATCGAGGACTATGAAAAGAGTCTGGAAGCGATGCAGGCAGCAGCAGCAGCAACCGCACAGGGGTCGTGA
modifications: ZmHPPDm-F372A-F383W-02 Nucleotide Sequence
notes: vector DBN11769
- Classification and statistics of the grade of pesticide damage: Grade 0 ([1]; topramezone 25 g ai/ha (1×)): 16
- Classification and statistics of the grade of pesticide damage: Grade 1 ([1]; topramezone 25 g ai/ha (1×)): 0
- Classification and statistics of the grade of pesticide damage: Grade 2 ([1]; topramezone 25 g ai/ha (1×)): 0
- Classification and statistics of the grade of pesticide damage: Grade 3 ([1]; topramezone 25 g ai/ha (1×)): 0
- Classification and statistics of the grade of pesticide damage: Grade 0 ([1]; topramezone 100 g ai/ha (4×)): 10
- Classification and statistics of the grade of pesticide damage: Grade 1 ([1]; topramezone 100 g ai/ha (4×)): 5
- Classification and statistics of the grade of pesticide damage: Grade 2 ([1]; topramezone 100 g ai/ha (4×)): 1
- Classification and statistics of the grade of pesticide damage: Grade 3 ([1]; topramezone 100 g ai/ha (4×)): 0
- Scores ([1]; topramezone 25 g ai/ha (1×)): 0
- Scores ([1]; topramezone 100 g ai/ha (4×)): 15
- Resistance evaluation ([1]; topramezone 25 g ai/ha (1×)): highly
- Resistance evaluation ([1]; topramezone 100 g ai/ha (4×)): highly
- Resistance evaluation [2, 4]: Moderately
- Scores (pesticide damage) [2, 4]: 25
- Classification and statistics of the grade of pesticide damage: Grade 0 (number of plants) [2, 4]: 5
- Classification and statistics of the grade of pesticide damage: Grade 1 (number of plants) [2, 4]: 10
- Classification and statistics of the grade of pesticide damage: Grade 2 (number of plants) [2, 4]: 1
- Classification and statistics of the grade of pesticide damage: Grade 3 (number of plants) [2, 4]: 0
- Resistance evaluation [2, 5]: Poorly
- Scores (pesticide damage) [2, 5]: 38
- Classification and statistics of the grade of pesticide damage: Grade 0 (number of plants) [2, 5]: 3
- Classification and statistics of the grade of pesticide damage: Grade 1 (number of plants) [2, 5]: 8
- Classification and statistics of the grade of pesticide damage: Grade 2 (number of plants) [2, 5]: 5
- Classification and statistics of the grade of pesticide damage: Grade 3 (number of plants) [2, 5]: 0
- Resistance evaluation ([3]; mesotrione 52.5 g ai/ha): Highly resistant
- Scores ([3]; mesotrione 52.5 g ai/ha): 15
- Grade 0 (classification and statistics of the grade of pesticide damage; number of plants) ([3]; mesotrione 52.5 g ai/ha): 9
- Grade 1 (classification and statistics of the grade of pesticide damage; number of plants) ([3]; mesotrione 52.5 g ai/ha): 7
- Grade 2 (classification and statistics of the grade of pesticide damage; number of plants) ([3]; mesotrione 52.5 g ai/ha): 0
- Grade 3 (classification and statistics of the grade of pesticide damage; number of plants) ([3]; mesotrione 52.5 g ai/ha): 0
- Resistance evaluation ([3]; mesotrione 105 g ai/ha): Moderately
- Scores ([3]; mesotrione 105 g ai/ha): 33
- Grade 0 (classification and statistics of the grade of pesticide damage; number of plants) ([3]; mesotrione 105 g ai/ha): 3
- Grade 1 (classification and statistics of the grade of pesticide damage; number of plants) ([3]; mesotrione 105 g ai/ha): 10
- Grade 2 (classification and statistics of the grade of pesticide damage; number of plants) ([3]; mesotrione 105 g ai/ha): 3
- Grade 3 (classification and statistics of the grade of pesticide damage; number of plants) ([3]; mesotrione 105 g ai/ha): 0
